{"source": "paper PMC8821138", "about": "(Food chemistry, 2021)", "origin": "cited, not measured here", "settings": "ref Parisi et al., 2020; Yagami et al., 2000"}
{"substance": "NaD1: defensin, literature example of digestion resistance (RECKTESNTFPGICITKPPCRKACISEKFTDGHCSKILRRCLCTKPC; UniProt Q8GTM0 26-72, looked up)", "values": [{"measurement": "Resistance in in vitro gastrointestinal digestions", "value": "demonstrated resistance"}]}
